Data published in patent EP2149585A1.
Where two headings read alike, the source gives them in different places.

Assays:
Test in all cases: cell-based or functional assay
[1] = molecular target: human CD40 on the cell surface (human) (UniProt P25942)
[2] = molecular target: human CD40 on B cells within PBMC from normal human subjects (human) (UniProt P25942)
[3] = molecular target: human CD40 on normal human B cells / PBMC (human) (UniProt P25942)
[4] = molecular target: human CD40 on B cells in PBMC from normal human subjects (human) (UniProt P25942)
human CD40 on B cells in PBMC from normal human subjects (human), sequence (P25942 20-277): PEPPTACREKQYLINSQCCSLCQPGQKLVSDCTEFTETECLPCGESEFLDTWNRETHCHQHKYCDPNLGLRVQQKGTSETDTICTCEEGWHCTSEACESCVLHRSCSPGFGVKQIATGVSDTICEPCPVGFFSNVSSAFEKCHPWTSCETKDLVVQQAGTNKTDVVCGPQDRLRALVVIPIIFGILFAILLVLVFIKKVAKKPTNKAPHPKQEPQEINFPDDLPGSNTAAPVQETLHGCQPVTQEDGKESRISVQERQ

[5] = molecular target: human CD40 on normal human B cells / PBMC (human) (UniProt P25942); remark: listed apart in the source

human CD40 on B cells within PBMC from normal human subjects (human), sequence (P25942 20-277): as above
human CD40 on normal human B cells / PBMC (human), sequence (P25942 20-277): as above
human CD40 on the cell surface (human), sequence (P25942 20-277): as above

CD40 ligand on formaldehyde-fixed CHO cells (from UniProt P29965 1-261)
average stimulation index (SI) of PBMC proliferation [1]: 7.41

CD40 ligand expressed on formaldehyde-fixed CHO cells (from UniProt P29965 1-261)
Average SI of PBMC, index(1) [2]: 11.9
Average Stimulation index, S.index (1) [2]: 22
PBMC proliferation CPM (PBMC+CHO-CD40L), Immoblize-004 [2]: 11700 CPM
PBMC proliferation CPM (PBMC+CHO-CD40L), PBMC-012 [2]: 6810 CPM
PBMC proliferation CPM (PBMC+CHO-CD40L), PBMC-025 Donor#1 [2]: 42300 CPM
PBMC proliferation CPM (PBMC+CHO-CD40L), PBMC-025 Donor#2 [2]: 15000 CPM
PBMC proliferation CPM (PBMC+CHO-CD40L), PBMC-026 Donor#1 [2]: 18300 CPM
PBMC proliferation CPM (PBMC+CHO-CD40L), PBMC-026 Donor#2 [2]: 18100 CPM
PBMC proliferation CPM (PBMC+CHO-CD40L), PBMC-027 Donor#1 [2]: 13000 CPM
PBMC proliferation CPM (PBMC+CHO-CD40L), PBMC-027 Donor#2 [2]: 11900 CPM
PBMC proliferation CPM (PBMC+CHO-CD40L), PBMC-028 Donor#1 [2]: 22500 CPM
PBMC proliferation CPM (PBMC+CHO-CD40L), PBMC-028 Donor#2 [2]: 54900 CPM
PBMC proliferation CPM (PBMC+CHO-CD40L), PBMC-029 Donor#1 [2]: 10100 CPM
PBMC proliferation CPM (PBMC+CHO-CD40L), PBMC-029 Donor#2 [2]: 23100 CPM
PBMC proliferation CPM (PBMC+CHO-CD40L), PBMC-030 Donor#1 [2]: 57200 CPM
PBMC proliferation CPM (PBMC+CHO-CD40L), PBMC-030 Donor#2 [2]: 53900 CPM
PBMC proliferation CPM (PBMC+CHO-CD40L), PBMC-032 Donor#1 [2]: 15300 CPM
PBMC proliferation S.index (1), Immoblize-004 [2]: 13.7
PBMC proliferation S.index (1), PBMC-012 [2]: 30.3
PBMC proliferation index(1), PBMC-025 Donor#1 [2]: 10.4
PBMC proliferation index(1), PBMC-025 Donor#2 [2]: 6.63
PBMC proliferation index(1), PBMC-026 Donor#1 [2]: 8.78
PBMC proliferation index(1), PBMC-026 Donor#2 [2]: 26.7
PBMC proliferation index(1), PBMC-027 Donor#1 [2]: 4.75
PBMC proliferation index(1), PBMC-027 Donor#2 [2]: 8.89
PBMC proliferation index(1), PBMC-028 Donor#1 [2]: 5.26
PBMC proliferation index(1), PBMC-028 Donor#2 [2]: 25.6
PBMC proliferation index(1), PBMC-029 Donor#1 [2]: 16.5
PBMC proliferation index(1), PBMC-029 Donor#2 [2]: 2.99
PBMC proliferation index(1), PBMC-030 Donor#1 [2]: 13.7
PBMC proliferation index(1), PBMC-030 Donor#2 [2]: 16.2
PBMC proliferation index(1), PBMC-032 Donor#1 [2]: 8.45
CPM, B cells + CHO-CD40L; B cell-004 donor 2 [3]: 27200 CPM
CPM, B cells+CHO-CD40L; B cell-004 donor 1 [3]: 3130 CPM
CPM, B cells+CHO-CD40L; B cell-005 donor 3 [3]: 24600 CPM
CPM, PBMC+CHO-CD40L (tritiated thymidine); PBMC-025 Donor#1 [3]: 42300 CPM
CPM, PBMC+CHO-CD40L (tritiated thymidine); PBMC-025 Donor#2 [3]: 15000 CPM
CPM, PBMC+CHO-CD40L (tritiated thymidine); PBMC-026 Donor#1 [3]: 19100 CPM
CPM, PBMC+CHO-CD40L (tritiated thymidine); PBMC-026 Donor#2 [3]: 17800 CPM
CPM, PBMC+CHO-CD40L (tritiated thymidine); PBMC-028 Donor#1 [3]: 22500 CPM
CPM, PBMC+CHO-CD40L (tritiated thymidine); PBMC-028 Donor#2 [3]: 54900 CPM
CPM, PBMC+CHO-CD40L (tritiated thymidine); PBMC-029 Donor#1 [3]: 10100 CPM
CPM, PBMC+CHO-CD40L (tritiated thymidine); PBMC-029 Donor#2 [3]: 23100 CPM
CPM, PBMC+CHO-CD40L (tritiated thymidine); PBMC-030 Donor#1 [3]: 53400 CPM
CPM, PBMC+CHO-CD40L (tritiated thymidine); PBMC-030 Donor#2 [3]: 53800 CPM
CPM, PBMC+CHO-CD40L (tritiated thymidine); PBMC-032 Donor#1 [3]: 14100 CPM
Average SI of PBMC, index(1), PBMC+CHO-CD40L [4]: 5.09
CPM, PBMC+CHO-CD40L (PBMC-010) [4]: 5280 CPM
CPM, PBMC+CHO-CD40L (PBMC-011 Donor#1) [4]: 8250 CPM
CPM, PBMC+CHO-CD40L (PBMC-011 Donor#2) [4]: 11600 CPM
CPM, PBMC+CHO-CD40L (PBMC-011 Donor#3) [4]: 7960 CPM
CPM, PBMC+CHO-CD40L (PBMC-011 Donor#4) [4]: 14300 CPM
CPM, PBMC+CHO-CD40L (PBMC-014) [4]: 8790 CPM
CPM, PBMC+CHO-CD40L (PBMC-015 Donor#1) [4]: 12900 CPM
CPM, PBMC+CHO-CD40L (PBMC-015 Donor#2) [4]: 19100 CPM
CPM, PBMC+CHO-CD40L (PBMC-015 Donor#3) [4]: 19800 CPM
CPM, PBMC+CHO-CD40L (PBMC-016) [4]: 15800 CPM
index(1), PBMC+CHO-CD40L (PBMC-010) [4]: 3.73
index(1), PBMC+CHO-CD40L (PBMC-011 Donor#1) [4]: 3.86
index(1), PBMC+CHO-CD40L (PBMC-011 Donor#2) [4]: 4.87
index(1), PBMC+CHO-CD40L (PBMC-011 Donor#3) [4]: 2.46
index(1), PBMC+CHO-CD40L (PBMC-011 Donor#4) [4]: 3.41
index(1), PBMC+CHO-CD40L (PBMC-014) [4]: 3.74
index(1), PBMC+CHO-CD40L (PBMC-015 Donor#1) [4]: 3.94
index(1), PBMC+CHO-CD40L (PBMC-015 Donor#2) [4]: 3.14
index(1), PBMC+CHO-CD40L (PBMC-015 Donor#3) [4]: 8
index(1), PBMC+CHO-CD40L (PBMC-016) [4]: 13.8
Average Stimulation Index (SI), B cells+CHO-CD40L [5]: 145
CPM, B cells+CHO-CD40L; B cell-004 donor 1 [5]: 3130 CPM
CPM, B cells+CHO-CD40L; B cell-005 donor 3 [5]: 24600 CPM
CPM, B cells+CHO-CD40L; donor 2 [5]: 27200 CPM
S. index(1) = CPM (B cells+CHO-CD40L)/CPM (B cells alone); B cell-004 donor 1 [5]: 7.49
S. index(1) = CPM (B cells+CHO-CD40L)/CPM (B cells alone); B cell-005 donor 3 [5]: 92
S. index(1) = CPM (B cells+CHO-CD40L)/CPM (B cells alone); donor 2 [5]: 336
